Where a chain is given by its changes, count along the chain named.
Columns and labels:
[1] = target: the molecule itself; assay: sedimentation assembly assay; self-assembly into filaments or paracrystals; 10 uM protein added to an equal volume, 10 mM imidazole pH 7.5, 0.1 mM EDTA, 1 mM DTT, 0-250 mM NaCl, on ice at least 30 min, 132,000 x g 15 min 4 °C; supernatant and pellet by SDS-PAGE
P08799 = assay: as above; conditions: other: sedimentation assembly assay
[2] = target: the molecule itself; assay: AUC; sedimentation equilibrium; step: single chains to two-stranded coiled coil; 10.5-52 uM protein, 10 mM Tris pH 7.4, 0.1 mM EDTA, 500 mM NaCl, 10 °C, 10,000 rpm; fit to a single non-associating ideal species

B1: AD (1xThr) myosin-II assembly domain (domain or fragment, Dictyostelium discoideum)
chain: MNVEFIRKKDAEIDDLRARLDRETESRIKSDEDKKNTRKQFADLEAKVEEAQREVVTIDRLKKKLESDIIDLSTQLDTETKSRIKIEKSKKKLEQTLAERRAAEEGSSKAADEEIRKQVWQEVDELRAQLDSERAALNASEKKIKSLVAEVDEVKEQLEDEILAKDKLVKAKRALEVELEEVRDQLEEEEDSRSELEDSKRRLTTEVEDIKKKYDAEVEQNTKLDEAKKKLTDDVDTLKKQLEDEKKKLNESERAKKRLESENEDFLAKLDAEVKNRSRAEKDRKKYEKDLKDTK
notes: N-terminal methionine added before the myosin residues; Dictyostelium myosin-II heavy chain, assembly domain, a.a; 1,531-1,824; also called headless AD (1xThr); 34-kDa assembly domain; source: E. coli BL21-CodonPlus (DE3)-RIL, purified (boiling, DEAE, Superdex 200, Mono Q)
B1: binds [1].

B2: AD (1xAsp) myosin-II assembly domain (domain or fragment, Dictyostelium discoideum)
chain: B1 chain with T294D
notes: N-terminal methionine added before the myosin residues; Dictyostelium myosin-II heavy chain, assembly domain, a.a; 1,531-1,824; also called headless AD (1xAsp); source: E. coli BL21-CodonPlus (DE3)-RIL, purified (boiling, DEAE, Superdex 200, Mono Q)
B2: binds [1].

B3: Ala1-Cterm (3xThr) (domain or fragment, Dictyostelium discoideum)
chain: MLDEIKRQYADVVSSRDKSVEQLKTLQAKNEELRNTAEEAEGQLDRAERSKKKAEFDLEEAVKNLEEETAKKVKAEKAMKKAETDYRSTKSELDDAKNVSSEQYVQIKRLNEELSELRSVLEEADERCNSAIKAKKTAESALESLKDEIDAANNAKAKAERKSKELEVRVAELEESLEDKSGTVNVEFIRKKDAEIDDLRARLDRETESRIKSDEDKKNTRKQFADLEAKVEEAQREVVTIDRLKKKLESDIIDLSTQLDTETKSRIKIEKSKKKLEQTLAERRAAEEGSSKAADEEIRKQVWQEVDELRAQLDSERAALNASEKKIKSLVAEVDEVKEQLEDEILAKDKLVKAKRALEVELEEVRDQLEEEEDSRSELEDSKRRLTTEVEDIKKKYDAEVEQNTKLDEAKKKLTDDVDTLKKQLEDEKKKLNESERAKKRLESENEDFLAKLDAEVKNRSRAEKDRKKYEKDLKDTKYKLNDEAATKTQTEIGAAKLEDQIDELRSKLEQEQAKATQADKSKKTLEGEIDNLRAQIEDEGKIKMRLEKEKRALEGELEELRETVEEAEDSKSEAEQSKRLVELELEDARRNLQKEIDAKEIAEDAKSNLQREIVEAKGRLEEESIARTNSDRSRKRLEAEIDALTAQVDAEQKAKNQQIKENKKIETELKEYRKKFGESEKTKTKEFLVVEKLETDYKRAKKEAADEQQQRLTVENDLRKHLSEISLLKDAIDKLQRDHDKTKRELETETASKIEMQRKMADFFGGFKA
notes: N-terminal methionine added before the myosin residues; Dictyostelium myosin-II heavy chain, a.a; 1,348-2,116 (Ala 1 through C terminus); also called headless Ala1-Cterm (3xThr); source: E. coli BL21-CodonPlus (DE3)-RIL, purified (boiling, DEAE, Superdex 200, Mono Q)
B3: binds [1].

B4: AD-Ala 2 (2xThr) (domain or fragment, Dictyostelium discoideum)
chain: MNVEFIRKKDAEIDDLRARLDRETESRIKSDEDKKNTRKQFADLEAKVEEAQREVVTIDRLKKKLESDIIDLSTQLDTETKSRIKIEKSKKKLEQTLAERRAAEEGSSKAADEEIRKQVWQEVDELRAQLDSERAALNASEKKIKSLVAEVDEVKEQLEDEILAKDKLVKAKRALEVELEEVRDQLEEEEDSRSELEDSKRRLTTEVEDIKKKYDAEVEQNTKLDEAKKKLTDDVDTLKKQLEDEKKKLNESERAKKRLESENEDFLAKLDAEVKNRSRAEKDRKKYEKDLKDTKYKLNDEAATKTQTEIGAAKLEDQIDELRSKLEQEQAKATQADKSKKTLEGEIDNLRAQIEDEGKIKMRLEKEKRALEGELEELRETVEEAEDSKSEAEQSKRLVELELEDARRNLQKEIDAKEIAEDAKSNLQREIVEAKGR
notes: N-terminal methionine added before the myosin residues; Dictyostelium myosin-II heavy chain, a.a; 1,531-1,966 (AD through Ala 2); also called headless AD-Ala2 (2xThr); source: E. coli BL21-CodonPlus (DE3)-RIL, purified (boiling, DEAE, Superdex 200, Mono Q)
B4: binds [1].

B5: AD-Cterm (3xAsp) myosin-II tail fragment (domain or fragment, Dictyostelium discoideum)
chain: MNVEFIRKKDAEIDDLRARLDRETESRIKSDEDKKNTRKQFADLEAKVEEAQREVVTIDRLKKKLESDIIDLSTQLDTETKSRIKIEKSKKKLEQTLAERRAAEEGSSKAADEEIRKQVWQEVDELRAQLDSERAALNASEKKIKSLVAEVDEVKEQLEDEILAKDKLVKAKRALEVELEEVRDQLEEEEDSRSELEDSKRRLTTEVEDIKKKYDAEVEQNTKLDEAKKKLTDDVDTLKKQLEDEKKKLNESERAKKRLESENEDFLAKLDAEVKNRSRAEKDRKKYEKDLKDDKYKLNDEAADKTQTEIGAAKLEDQIDELRSKLEQEQAKATQADKSKKTLEGEIDNLRAQIEDEGKIKMRLEKEKRALEGELEELRETVEEAEDSKSEAEQSKRLVELELEDARRNLQKEIDAKEIAEDAKSNLQREIVEAKGRLEEESIARTNSDRSRKRLEAEIDALTAQVDAEQKAKNQQIKENKKIETELKEYRKKFGESEKDKTKEFLVVEKLETDYKRAKKEAADEQQQRLTVENDLRKHLSEISLLKDAIDKLQRDHDKTKRELETETASKIEMQRKMADFFGGFKA
notes: N-terminal methionine added before the myosin residues; Dictyostelium myosin-II heavy chain, a.a; 1,531-2,116, aspartic acids in place of the three threonine phosphorylation sites; Phosphomimetic; also called headless AD-Cterm (3xAsp); 3xAsp tail fragment; source: E. coli BL21-CodonPlus (DE3)-RIL, purified (boiling, DEAE, Superdex 200, Mono Q)
In the case of B5, the “fold difference in solubility against AD-Cterm (3xThr)” value (P08799) is reported as “eight-fold difference in solubility of full-length unphosphorylated and phosphorylated myosin, respectively, and AD-Cterm (3xThr) and AD-Cterm (3xAsp), respectively” and the “stoichiometry N” value [2] is reported as 2.

B6: AD-Cterm (3xThr) myosin-II tail fragment (domain or fragment, Dictyostelium discoideum)
chain: B5 chain with D294T, D304T, D500T
notes: N-terminal methionine added before the myosin residues; Dictyostelium myosin-II heavy chain, a.a; 1,531-2,116 (assembly domain through C terminus); the assembly rows are about coiled coils joining into paracrystals; also called headless AD-Cterm (3xThr); wild-type tail fragment; source: E. coli BL21-CodonPlus (DE3)-RIL, purified (boiling, DEAE, Superdex 200, Mono Q)
For B6, the “stoichiometry N” value [2] was 2.

B7: Ala1-Ala2 (2xThr) (domain or fragment, Dictyostelium discoideum)
chain: MLDEIKRQYADVVSSRDKSVEQLKTLQAKNEELRNTAEEAEGQLDRAERSKKKAEFDLEEAVKNLEEETAKKVKAEKAMKKAETDYRSTKSELDDAKNVSSEQYVQIKRLNEELSELRSVLEEADERCNSAIKAKKTAESALESLKDEIDAANNAKAKAERKSKELEVRVAELEESLEDKSGTVNVEFIRKKDAEIDDLRARLDRETESRIKSDEDKKNTRKQFADLEAKVEEAQREVVTIDRLKKKLESDIIDLSTQLDTETKSRIKIEKSKKKLEQTLAERRAAEEGSSKAADEEIRKQVWQEVDELRAQLDSERAALNASEKKIKSLVAEVDEVKEQLEDEILAKDKLVKAKRALEVELEEVRDQLEEEEDSRSELEDSKRRLTTEVEDIKKKYDAEVEQNTKLDEAKKKLTDDVDTLKKQLEDEKKKLNESERAKKRLESENEDFLAKLDAEVKNRSRAEKDRKKYEKDLKDTKYKLNDEAATKTQTEIGAAKLEDQIDELRSKLEQEQAKATQADKSKKTLEGEIDNLRAQIEDEGKIKMRLEKEKRALEGELEELRETVEEAEDSKSEAEQSKRLVELELEDARRNLQKEIDAKEIAEDAKSNLQREIVEAKGR
notes: N-terminal methionine added before the myosin residues; Dictyostelium myosin-II heavy chain, a.a; 1,348-1,966 (Ala 1 through Ala 2); also called headless Ala1-Ala2 (2xThr); source: E. coli BL21-CodonPlus (DE3)-RIL, purified (boiling, DEAE, Superdex 200, Mono Q)
B7: binds [1].

B8: extended AD (2xAsp) (protein)
chain: MNVEFIRKKDAEIDDLRARLDRETESRIKSDEDKKNTRKQFADLEAKVEEAQREVVTIDRLKKKLESDIIDLSTQLDTETKSRIKIEKSKKKLEQTLAERRAAEEGSSKAADEEIRKQVWQEVDELRAQLDSERAALNASEKKIKSLVAEVDEVKEQLEDEILAKDKLVKAKRALEVELEEVRDQLEEEEDSRSELEDSKRRLTTEVEDIKKKYDAEVEQNTKLDEAKKKLTDDVDTLKKQLEDEKKKLNESERAKKRLESENEDFLAKLDAEVKNRSRAEKDRKKYEKDLKDDKYKLNDEAADKTQTEIG
B8 was tested, and the “fold difference in solubility against extended AD (2xThr)” value (P08799) was “extended AD (2xThr) and extended AD (2xAsp) show a four-fold difference in solubility”.

B9: extended AD (2xThr) (domain or fragment, Dictyostelium discoideum)
chain: B8 chain with D294T, D304T
notes: N-terminal methionine added before the myosin residues; Dictyostelium myosin-II heavy chain, a.a; 1,531-1,840; also called headless extended AD (2xThr); source: E. coli BL21-CodonPlus (DE3)-RIL, purified (boiling, DEAE, Superdex 200, Mono Q)
B9: binds [1].

Source: article PMC523230, “Dictyostelium Myosin Bipolar Thick Filament Formation: Importance of Charge and Specific Domains of the Myosin Rod” (PLoS Biology, 2004)
